From patent CN117843776A

Target: IL-17RA and IL-17RC co-expressed on 293F-IL-17RA-IL-17Rc-ACT1-NFκB-Luc reporter cells (Homo sapiens (Human)) (UniProt Q96F46)
Assay: FACS, IL-17A recombinant protein on 293F-IL-17RA-IL-17Rc-ACT1-NFκB-Luc cells

Sequence of UniProt Q96F46 (Q96F46 33-866 limits assumed, chain 1 of 2): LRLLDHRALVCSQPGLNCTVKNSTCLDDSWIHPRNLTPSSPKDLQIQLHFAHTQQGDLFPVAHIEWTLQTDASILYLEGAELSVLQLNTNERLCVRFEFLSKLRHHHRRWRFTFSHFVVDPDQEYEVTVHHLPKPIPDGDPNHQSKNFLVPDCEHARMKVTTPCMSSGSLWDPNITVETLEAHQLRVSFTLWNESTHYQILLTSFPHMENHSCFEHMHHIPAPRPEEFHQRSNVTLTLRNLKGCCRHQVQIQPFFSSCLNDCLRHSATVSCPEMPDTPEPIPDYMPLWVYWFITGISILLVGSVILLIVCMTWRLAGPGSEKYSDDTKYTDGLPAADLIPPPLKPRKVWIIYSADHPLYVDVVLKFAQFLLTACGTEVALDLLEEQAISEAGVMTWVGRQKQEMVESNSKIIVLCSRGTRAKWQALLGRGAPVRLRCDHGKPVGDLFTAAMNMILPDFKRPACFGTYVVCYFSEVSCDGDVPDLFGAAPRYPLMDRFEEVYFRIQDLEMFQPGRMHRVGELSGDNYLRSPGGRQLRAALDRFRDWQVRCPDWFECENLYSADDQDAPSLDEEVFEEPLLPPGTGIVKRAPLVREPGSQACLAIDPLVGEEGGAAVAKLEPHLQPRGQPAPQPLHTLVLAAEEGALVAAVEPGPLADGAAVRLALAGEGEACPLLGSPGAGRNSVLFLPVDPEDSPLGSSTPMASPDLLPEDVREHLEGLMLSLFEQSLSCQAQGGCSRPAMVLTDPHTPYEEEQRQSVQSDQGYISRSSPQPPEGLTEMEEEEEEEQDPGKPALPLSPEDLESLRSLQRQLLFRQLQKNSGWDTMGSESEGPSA
Sequence of UniProt Q96F46 (chain, as listed by the source limits assumed, chain 2 of 2): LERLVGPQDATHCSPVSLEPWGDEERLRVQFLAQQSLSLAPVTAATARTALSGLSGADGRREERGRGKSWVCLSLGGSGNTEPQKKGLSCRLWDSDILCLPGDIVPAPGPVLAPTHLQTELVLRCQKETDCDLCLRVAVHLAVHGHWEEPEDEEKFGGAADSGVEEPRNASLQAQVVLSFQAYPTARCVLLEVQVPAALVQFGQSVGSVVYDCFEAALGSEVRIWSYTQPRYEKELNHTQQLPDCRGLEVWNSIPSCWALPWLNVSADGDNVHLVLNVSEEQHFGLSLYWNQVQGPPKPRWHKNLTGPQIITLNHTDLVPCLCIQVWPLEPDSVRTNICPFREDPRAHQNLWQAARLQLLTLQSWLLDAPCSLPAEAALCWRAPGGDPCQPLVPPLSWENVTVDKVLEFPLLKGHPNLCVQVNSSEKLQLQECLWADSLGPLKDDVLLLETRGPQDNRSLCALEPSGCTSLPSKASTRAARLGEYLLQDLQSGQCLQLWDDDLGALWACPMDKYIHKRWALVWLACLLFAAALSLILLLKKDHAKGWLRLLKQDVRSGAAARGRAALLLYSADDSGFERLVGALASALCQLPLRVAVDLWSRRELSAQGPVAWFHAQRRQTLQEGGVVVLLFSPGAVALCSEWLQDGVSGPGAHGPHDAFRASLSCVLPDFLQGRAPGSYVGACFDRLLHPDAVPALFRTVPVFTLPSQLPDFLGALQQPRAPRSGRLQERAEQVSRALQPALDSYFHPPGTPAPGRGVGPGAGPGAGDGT

Substance: Human IL-17A重组蛋白 (C-terminal 6xHis) (from UniProt Q16552 24-155) (ligand)
- 阳性率: > 90 %
